Data taken from patent publication US20230041822A1 (Molecular Partners, published 2023).
Changes are numbered by the printed parent chain.

What was measured:
[1] = target: T1, HBVc18 peptide-MHC complex (HBVc18pMHC), biotinylated recombinant tripartite complex of HLA-A*0201, human … (human; hepatitis B virus); assay: SPR (ProteOn), biotinylated HBVc18pMHC on the NLC chip, DARPin protein injected, multi-trace fit
T1 construct: also called HLA-A*0201: HBc18; target peptide-MHC complex
Experimental: (§1) The binding affinities of the purified ankyrin repeat proteins on the HBVc18pMHC target were analyzed using a ProteOn Surface Plasmon Resonance (SPR) instrument (BioRad) and the measurement was performed according standard procedures known to the person skilled in the art.
(§2) Briefly, biotinylated HBVc18pMHC were diluted in PBST (PBS, pH 7.4 containing 0.005% Tween 20®) and coated on a NLC chip (BioRad) to a level of around 1000 resonance units (RU). […] No target regeneration was performed. The signals (i.e. resonance unit (RU) values) of the interspots were subtracted from the RU traces obtained after injection of ankyrin repeat protein. Based on the SPR traces obtained from the on-rate and off-rate measurements, the on- and off-rates of the corresponding ankyrin repeat proteins towards the pMHC complexes were determined.

[2] = target: T1, HBVc18 peptide-MHC complex …; assay: SPR (ProteOn), biotinylated HBVc18pMHC on NLC chip, ankyrin repeat protein injected, PBST
Experimental: as §2
Dissociation constants (KD) were calculated from the estimated on- and off-rates using standard procedures known to the person skilled in the art.

[3] = target: T1, HBVc18 peptide-MHC complex …; assay: SPR (ProteOn), biotinylated HBVc18pMHC on the NLC chip, DARPin protein injected, multi-trace fit [continued) G]
Experimental: as §1, §2

[4] = target: T1, HBVc18 peptide-MHC complex …; assay: SPR (ProteOn), biotinylated HBVc18pMHC on the NLC chip, DARPin protein injected, multi-trace fit [continued) E]
Experimental: as §1, §2

[5] = target: T1, HBVc18 peptide-MHC complex …; assay: SPR (ProteOn), biotinylated HBVc18pMHC on the NLC chip, DARPin protein injected, multi-trace fit; remark: listed apart in the source
Experimental: as §1, §2

[6] = target: T1, HBVc18 peptide-MHC complex …; assay: as above; remark: listed apart in the source
Experimental: as §1, §2

[7] = target: T1, HBVc18 peptide-MHC complex …; assay: SPR (ProteOn), biotinylated HBVc18pMHC on the NLC chip, DARPin protein injected, multi-trace fit [continued) I]
Experimental: as §1, §2

[8] = target: T1, HBVc18 peptide-MHC complex …; assay: SPR (ProteOn), biotinylated HBVc18pMHC on the NLC chip, DARPin protein injected, multi-trace fit [continued) H]
Experimental: as §1, §2

[9] = target: T1, HBVc18 peptide-MHC complex …; assay: SPR (ProteOn), biotinylated HBVc18pMHC on the NLC chip, DARPin protein injected, multi-trace fit [continued) D]
Experimental: as §1, §2

[10] = target: T1, HBVc18 peptide-MHC complex …; assay: SPR (ProteOn), biotinylated HBVc18pMHC on the NLC chip, DARPin protein injected, multi-trace fit [continued) F]
Experimental: as §1, §2

[11] = target: T1, HBVc18 peptide-MHC complex …; assay: SPR (ProteOn), biotinylated HBVc18pMHC on the NLC chip, DARPin protein injected, multi-trace fit [continued) J]
Experimental: as §1, §2

B1: TCE DARPin® protein #18 (designed binder, not shown: small tags and cut ends)
chain: GSDLGYKLLTAAIVGQDDEVRILLAAGADVNAKDQSGLTPLHLAAAYGHLEIVEVLLKAGADVNAKDKHGRTPLHLAALEGHLEIVEVLLKAGADVNAQDQFGITPADLAAAVGHEDIAEVLQKAA
[1]
  koff: 0.00218 s⁻¹
  kon: 305000 M⁻¹ s⁻¹
[2]
  Kd: 7.15 nM

B2: TCE DARPin® protein #23 (designed binder, not shown: small tags and cut ends)
chain: B1 chain with Y6Q
[3]
  koff: 0.00274 s⁻¹
  kon: 387000 M⁻¹ s⁻¹
[2]
  Kd: 7.1 nM

B3: TCE DARPin® protein #21 (designed binder, not shown: small tags and cut ends)
chain: GSDLGIKLLFAANFGQDDEVRILLAAGADVNAKDQSGRTPLHLAALWGHLEIVEVLLKAGADVNAKDVFGLTPLHIAATFGHLEIVEVLLKAGVDVNAQDYTGHTPADLAALIGHEDIAEVLQKAA
[4]
  koff: 0.00106 s⁻¹
  kon: 115000 M⁻¹ s⁻¹
[2]
  Kd: 9.23 nM

B4: TCE DARPin® protein #17 (designed binder, not shown: small tags and cut ends)
chain: GSDLGQKLLLAAAIGQDDEVRILLAAGADVNAKDESGHTPLHYAAHVGHLEIVEVLLKAGDVNAKDHRGFTPLHVAAQIGHLEIVEVLLKAGADVNAQDNWGITPADLAAWWGHEDIAEVLQKAA
[5]
  koff: 6.24e-06 s⁻¹
  kon: 16900 M⁻¹ s⁻¹
[2]
  Kd: 0.369 nM

B5: TCE DARPin® protein #16 (designed binder, not shown: small tags and cut ends)
chain: GSDLGHKLLFAASAGQDDEVRILLAAGADVNAKDESGQTPLHYAAFVGHLEIVEVLLKAGADVNAKDQWGHTPLHVAATFGHLEIVEVLLKAGADVNAQDTWGTTPADLAATFGHEDIAEVLQKAA
[6]
  koff: 0.000307 s⁻¹
  kon: 66100 M⁻¹ s⁻¹
[2]
  Kd: 4.65 nM

B6: TCE DARPin® protein #25 (designed binder, not shown: small tags and cut ends)
chain: B5 chain with H6S, F10Y, S13I, A14S, E120V
[7]
  koff: 3.17e-05 s⁻¹
  kon: 30800 M⁻¹ s⁻¹
[2]
  Kd: 1.03 nM

B7: TCE DARPin® protein #24 (designed binder, not shown: small tags and cut ends)
chain: B5 chain with H6W, F10H, S13T, A14T
[8]
  koff: 0.000288 s⁻¹
  kon: 61100 M⁻¹ s⁻¹
[2]
  Kd: 4.72 nM

B8: TCE DARPin® protein #20 (designed binder, not shown: small tags and cut ends)
chain: B5 chain with H6F, F10E, S13L, A14E
[9]
  koff: 3.26e-05 s⁻¹
  kon: 44300 M⁻¹ s⁻¹
[2]
  Kd: 0.736 nM

B9: TCE DARPin® protein #22 (designed binder, not shown: small tags and cut ends)
chain: GSDLGKKLLSAAQSGQDDEVRILLGAGADVNAKDKWGHTPLHLAAVKGHLEIAEVLLKAGADVNAKDEWGSTPLHLAASQGHLEIVEVLLKAGADVNAKDKKGATPLHLAALVGHLEIVEVLLKAVADVNAQDKSGKTPADLAARAGHQDIAEVLQKAA
[10]
  koff: 0.0115 s⁻¹
  kon: 833000 M⁻¹ s⁻¹
[2]
  Kd: 13.8 nM

B10: TCE DARPin® protein #26 (designed binder, not shown: small tags and cut ends)
chain: GSDLGKKLLQAARAGQLDEVHELLKAGADVNAKDQHGKTPMHLAAQIGHLEIVEVLLKAGADVNAKDHIGWTPLHLAASVGHLEIVEVLLKAGADVNAKDQEGWTPLHVAAQLGHLEIVEVLLKAGADVNAQDKSGKTPADLAARAGHQDSAEVLQKAA
[11]
  koff: 0.000812 s⁻¹
  kon: 87000 M⁻¹ s⁻¹
[2]
  Kd: 9.33 nM
